Laboratory results published in publication doi:10.1101/2021.05.01.442282 (bioRxiv, 2021).

Molecular target: monomeric recombinant human ASC (Apoptosis-associated speck-like protein containing a caspase recruitment … (human, UniProt Q9ULZ3 1-195))
Experiment: limited proteolysis-coupled mass spectrometry

monomeric recombinant human ASC (Apoptosis-associated speck-like protein containing a caspase recruitment …, sequence (Q9ULZ3 whole entry): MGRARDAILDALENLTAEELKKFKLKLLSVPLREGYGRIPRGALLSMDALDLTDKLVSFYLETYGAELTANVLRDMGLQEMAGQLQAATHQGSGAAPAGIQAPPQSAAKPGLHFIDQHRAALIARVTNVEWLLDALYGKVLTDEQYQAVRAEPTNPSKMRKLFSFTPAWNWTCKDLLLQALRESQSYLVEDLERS

B1: monomeric recombinant human SAA1 (serum amyloid A1) (natural protein, UniProt P0DJI8 19-122, looked up)
chain: RSFFSFLGEAFDGARDMWRAYSDMREANYIGSDKYFHARGNYDAAKRGPGGAWAAEVITDARENIQRFFGHGAEDSLADQAANEWGRSGKDPNHFRPAGLPEKY
- binding result: binds
